B1: biotinylated ClfA region A protein (other)
chain: SENSVTQSDSASNESKSNDSSSVSAAPKTDDTNVSDTKTSSNTNNGETSVAQNPAQQETTQSSSTNATTEETPVTGEATTTTTNQANTPATTQSSNTNAEELVNQTSNETTFNDTNTVSSVNSPQNSTNAENVSTTQDTSTEATPSNNESAPQSTDASNKDVVNQAVNTSAPRMRAFSLAAVAADAPAAGTDITNQLTNVTVGIDSGTTVYPHQAGYVKLNYGFSVPNSAVKGDTFKITVPKELNLNGVTSTAKVPPIMAGDQVLANGVIDSDGNVIYTFTDYVNTKDDVKATLTMPAYIDPENVKKTGNVTLATGIGSTTANKTVLVDYEKYGKFYNLSIKGTIDQIDKTNNTYRQTIYVNPSGDNVIAPVLTGNLKPNTDSNALIDQQNTSIKVYKVDNAADLSESYFVNPENFEDVTNSVNITFPNPNQYKVEFNTPDDQITTPYIVVVNGHIDPNSKGDLALRSTLYGYNSNIIWRSMSWDNEVAFNNGSGSGDGIDKPVVPEQPDEPGEIEPIPE
modifications: biotinylated (sites not given)
notes: domain: region A; also called biotinylated recombinant region A from ClfA; C1fA region A
B4: biotinylated ClfB (His-tag recombinant region A) (other)
chain: SEQSNDTTQSSKNNASADSEKNNMIETPQLNTTANDTSDISANTNSANVDSTTKPMSTQTSNTTTTEPASTNETPQPTAIKNQATAAKMQDQTVPQEGNSQVDNKTTNDANSIATNSELKNSQTLDLPQSSPQTISNAQGTSKPSVRTRAVRSLAVAEPVVNAADAKGTNVNDKVTASNFKLEKTTFDPNQSGNTFMAANFTVTDKVKSGDYFTAKLPDSLTGNGDVDYSNSNNTMPIADIKSTNGDVVAKATYDILTKTYTFVFTDYVNNKENINGQFSLPLFTDRAKAPKSGTYDANINIADEMFNNKITYNYSSPIAGIDKPNGANISSQIIGVDTASGQNTYKQTVFVNPKQRVLGNTWVYIKGYQDKIEESSGKVSATDTKLRIFEVNDTSKLSDSYYADPNDSNLKEVTDQFKNRIYYEHPNVASIKFGDITKTYVVLVEGHYDNTGKNLKTQVIQENVDPVTNRDYSIFGWNNENVVRYGGGSADGDSAVN
modifications: Biotinylated with EZ link-sulfo-NHS-LC-Biotin (sites not given); N-terminal His-tag from pV4 left off.
notes: Region A (S45 to N542) amplified from S. aureus Newman genomic DNA, cloned in His-tag vector pV4, purified on nickel; also called ClfB region A; biotinylated purified ClfB region A

Assays:
human fibrinogen = molecular target: T1, human fibrinogen (human, UniProt P02671 20-629; P02675 31-491; P02679 27-437); assay: direct ELISA, biotinylated region A on fibrinogen-coated plates (Figure 14)
T1 construct: Purified human fibrinogen, bought (Chromogenix for ELISA, Calbiochem for clumping); The plate adherence assays say only 'fibrinogen'; also called solid phase fibrinogen; immobilized fibrinogen
T1 sequence 1: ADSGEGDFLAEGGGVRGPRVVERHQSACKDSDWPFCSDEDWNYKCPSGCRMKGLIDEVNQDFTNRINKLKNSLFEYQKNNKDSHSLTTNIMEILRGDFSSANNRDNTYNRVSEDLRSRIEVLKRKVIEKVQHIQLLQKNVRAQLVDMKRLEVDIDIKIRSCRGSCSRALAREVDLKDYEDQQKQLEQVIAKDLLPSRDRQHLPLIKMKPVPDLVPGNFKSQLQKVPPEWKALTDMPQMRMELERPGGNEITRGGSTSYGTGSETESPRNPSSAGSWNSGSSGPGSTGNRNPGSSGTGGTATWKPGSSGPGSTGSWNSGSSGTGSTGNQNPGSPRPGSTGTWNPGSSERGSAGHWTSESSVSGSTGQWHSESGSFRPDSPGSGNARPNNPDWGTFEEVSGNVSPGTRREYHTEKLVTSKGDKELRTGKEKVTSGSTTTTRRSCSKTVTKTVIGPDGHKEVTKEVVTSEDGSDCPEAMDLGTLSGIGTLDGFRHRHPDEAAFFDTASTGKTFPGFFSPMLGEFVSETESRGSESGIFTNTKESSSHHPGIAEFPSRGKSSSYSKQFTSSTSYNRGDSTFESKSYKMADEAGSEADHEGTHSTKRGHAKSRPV
T1 sequence 2: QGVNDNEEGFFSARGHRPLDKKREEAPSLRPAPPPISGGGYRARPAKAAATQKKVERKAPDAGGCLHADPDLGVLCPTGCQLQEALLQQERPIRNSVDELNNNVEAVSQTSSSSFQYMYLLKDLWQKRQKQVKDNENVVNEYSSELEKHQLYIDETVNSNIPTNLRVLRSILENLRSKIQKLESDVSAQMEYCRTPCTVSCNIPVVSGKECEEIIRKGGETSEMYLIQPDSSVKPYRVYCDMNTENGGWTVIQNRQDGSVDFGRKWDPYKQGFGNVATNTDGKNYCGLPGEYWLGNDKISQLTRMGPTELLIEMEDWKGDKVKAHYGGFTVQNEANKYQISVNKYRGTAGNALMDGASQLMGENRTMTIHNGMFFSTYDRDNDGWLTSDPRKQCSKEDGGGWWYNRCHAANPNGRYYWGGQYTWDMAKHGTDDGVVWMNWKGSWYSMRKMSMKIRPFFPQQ
T1 sequence 3: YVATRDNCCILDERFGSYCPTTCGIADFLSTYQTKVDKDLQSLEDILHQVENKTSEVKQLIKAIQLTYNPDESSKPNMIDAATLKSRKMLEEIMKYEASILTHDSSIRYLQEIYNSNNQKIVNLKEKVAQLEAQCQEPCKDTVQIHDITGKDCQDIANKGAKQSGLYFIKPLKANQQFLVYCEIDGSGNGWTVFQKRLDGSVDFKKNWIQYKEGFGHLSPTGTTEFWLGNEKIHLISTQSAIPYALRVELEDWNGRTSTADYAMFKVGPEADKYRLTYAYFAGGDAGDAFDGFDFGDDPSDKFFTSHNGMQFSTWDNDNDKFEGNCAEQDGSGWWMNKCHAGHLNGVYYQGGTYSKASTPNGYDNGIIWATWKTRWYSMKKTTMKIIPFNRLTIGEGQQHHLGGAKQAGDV

bovine serum albumin = molecular target: T2, bovine serum albumin (bovine, UniProt P02769 25-607); assay: direct ELISA, biotinylated region A on BSA-coated plates
T2 construct: Negative control coat in ELISA; also called BSA
T2 sequence (P02769 25-607 limits assumed): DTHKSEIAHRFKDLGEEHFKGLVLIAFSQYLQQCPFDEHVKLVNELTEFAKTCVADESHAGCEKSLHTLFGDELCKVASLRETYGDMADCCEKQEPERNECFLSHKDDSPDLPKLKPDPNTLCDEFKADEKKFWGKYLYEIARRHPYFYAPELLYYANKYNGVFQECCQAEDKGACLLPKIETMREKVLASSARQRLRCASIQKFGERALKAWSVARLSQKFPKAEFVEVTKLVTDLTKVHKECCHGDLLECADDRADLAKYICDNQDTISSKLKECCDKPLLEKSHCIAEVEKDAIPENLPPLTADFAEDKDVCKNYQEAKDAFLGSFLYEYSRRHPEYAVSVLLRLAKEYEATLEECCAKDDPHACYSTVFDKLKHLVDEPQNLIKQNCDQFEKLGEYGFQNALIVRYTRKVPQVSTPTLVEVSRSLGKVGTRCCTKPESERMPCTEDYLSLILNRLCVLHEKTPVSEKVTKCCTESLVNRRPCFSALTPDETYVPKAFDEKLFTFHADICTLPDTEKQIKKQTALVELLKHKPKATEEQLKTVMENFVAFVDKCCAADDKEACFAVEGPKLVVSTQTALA

[1] = molecular target: B1; assay: Western affinity blot (Figure 22), blotted human fibrinogen probed with 2.5 µg/ml biotinylated region A
[2] = molecular target: B4; assay: Western affinity blot, blotted human fibrinogen probed with 2.5 µg/ml biotinylated ClfB region A
[3] = molecular target: T3, alpha chain of human fibrinogen (human, UniProt P02671 20-629); assay: as above
T3 construct: Band of human fibrinogen (Chromogenix) after SDS-PAGE, on nitrocellulose; also called α chain of fibrinogen
T3 sequence: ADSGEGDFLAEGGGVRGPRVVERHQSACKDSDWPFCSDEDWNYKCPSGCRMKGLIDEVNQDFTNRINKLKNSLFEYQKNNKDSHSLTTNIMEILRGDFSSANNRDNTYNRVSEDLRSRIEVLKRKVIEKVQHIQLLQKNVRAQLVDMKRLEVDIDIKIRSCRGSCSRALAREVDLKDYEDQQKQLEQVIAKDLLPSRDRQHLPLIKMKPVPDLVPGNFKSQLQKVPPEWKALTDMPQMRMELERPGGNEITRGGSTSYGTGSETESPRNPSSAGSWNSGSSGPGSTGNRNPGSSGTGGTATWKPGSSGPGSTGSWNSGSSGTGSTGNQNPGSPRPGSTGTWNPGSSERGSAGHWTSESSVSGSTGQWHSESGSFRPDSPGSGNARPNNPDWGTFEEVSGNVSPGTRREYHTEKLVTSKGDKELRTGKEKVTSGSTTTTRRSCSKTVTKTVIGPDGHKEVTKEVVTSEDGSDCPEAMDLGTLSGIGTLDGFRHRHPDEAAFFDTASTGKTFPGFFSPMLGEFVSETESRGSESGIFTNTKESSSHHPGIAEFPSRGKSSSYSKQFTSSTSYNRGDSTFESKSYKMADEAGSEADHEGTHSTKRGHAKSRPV

## B1
Human fibrinogen
  binding at the highest concentration relative to ClfB region A: ~50 % greater than ClfB
Bovine serum albumin
  binding result: no binding

B2: gamma chain of human fibrinogen (other)
chain: YVATRDNCCILDERFGSYCPTTCGIADFLSTYQTKVDKDLQSLEDILHQVENKTSEVKQLIKAIQLTYNPDESSKPNMIDAATLKSRKMLEEIMKYEASILTHDSSIRYLQEIYNSNNQKIVNLKEKVAQLEAQCQEPCKDTVQIHDITGKDCQDIANKGAKQSGLYFIKPLKANQQFLVYCEIDGSGNGWTVFQKRLDGSVDFKKNWIQYKEGFGHLSPTGTTEFWLGNEKIHLISTQSAIPYALRVELEDWNGRTSTADYAMFKVGPEADKYRLTYAYFAGGDAGDAFDGFDFGDDPSDKFFTSHNGMQFSTWDNDNDKFEGNCAEQDGSGWWMNKCHAGHLNGVYYQGGTYSKASTPNGYDNGIIWATWKTRWYSMKKTTMKIIPFNRLTIGEGQQHHLGGAKQAGDV
notes: Band of human fibrinogen (Chromogenix) after SDS-PAGE, on nitrocellulose; also called γ chain of fibrinogen
[1]
  binding result: binds

B3: beta chain of human fibrinogen (other)
chain: QGVNDNEEGFFSARGHRPLDKKREEAPSLRPAPPPISGGGYRARPAKAAATQKKVERKAPDAGGCLHADPDLGVLCPTGCQLQEALLQQERPIRNSVDELNNNVEAVSQTSSSSFQYMYLLKDLWQKRQKQVKDNENVVNEYSSELEKHQLYIDETVNSNIPTNLRVLRSILENLRSKIQKLESDVSAQMEYCRTPCTVSCNIPVVSGKECEEIIRKGGETSEMYLIQPDSSVKPYRVYCDMNTENGGWTVIQNRQDGSVDFGRKWDPYKQGFGNVATNTDGKNYCGLPGEYWLGNDKISQLTRMGPTELLIEMEDWKGDKVKAHYGGFTVQNEANKYQISVNKYRGTAGNALMDGASQLMGENRTMTIHNGMFFSTYDRDNDGWLTSDPRKQCSKEDGGGWWYNRCHAANPNGRYYWGGQYTWDMAKHGTDDGVVWMNWKGSWYSMRKMSMKIRPFFPQQ
notes: Band of human fibrinogen (Chromogenix) after SDS-PAGE, on nitrocellulose; also called β chain of fibrinogen
[2]
  binding result: binds

## B4
[3]
  binding result: binds
Human fibrinogen
  binding result: binds
Bovine serum albumin
  binding result: no binding (tested: 0.1-10 µg/ml)
